Test results from article PMC10732398 (PLOS Pathogens, 2023).

Tests used:
[1] = target: BG505 gp120 (monomeric gp120) (HIV-1 BG505); assay: SPR
[2] = target: BG505 SOSIP env trimer (HIV-1 BG505); assay: SPR
[3] = target: CD4 D1D2 protein (23 kD, aa 1-183) (human); assay: SPR
[4] = tested on: ⍺4β7 transfected 293T cells; assay: Flow cytometry: staining of 293T cells co-transfected with ⍺4 and β7 expression vectors; assay type: binding; settings: Fig 1C
Text: The FRET/FLIM results described above indicate a direct interaction between CD4 and ⍺4β7. […] To this end we employed a fluorescently labelled soluble dodecameric CD4 Ig fusion protein, termed D1D2-Ig⍺tp, that includes the two N-terminal Ig-like domains of CD4 (D1D2, aa 1–180), followed by IgG1 CH2 and CH3 domains, followed by the 18 aa tail-piece domain of IgA (⍺tp). In this oligomer, 12 D1D2-Igs are arranged in a disulphide linked daisy-chain (Fig 1A). Primary CD4^+ T cells, some of which express ⍺4β7, were reacted with D1D2-Ig⍺tp and analyzed by flow-cytometry. A second oligomeric Ig fusion protein, MicA-Ig⍺tp, which includes the two N-terminal domains of MicA, was employed as a specificity control. […] MAdCAM-Ig was employed as a positive control. […] We conclude that an oligomeric soluble CD4 that includes only its two N-terminal domains can bind to ⍺4β7 in a specific way.
Fig 1 Binding of soluble CD4 to ⍺4β7 on CD4^+ T cells. (A) Schematic of D1D2-Ig⍺tp. […] X-axis indicates geometric mean fluorescence intensity (gMFI). […]
Cells were stained with fluoresceine conjugated mAbs or recombinant proteins using standard procedures preceded by Fc receptor blocking with human IgG. […] Data were acquired using a FACSCanto II (BD Biosciences) and analyzed with FlowJo software (BD Biosciences). […]

[5] = tested on: ⍺4β7 on primary CD8^+ T cells; assay: Flow cytometry: FAM-conjugated pCD4^165-178 binding to RA-treated primary CD8^+ T cells; parameters: species or system human; settings: FAM-Ttds-labelled peptide 1.25 μg/200,000 cells in 100 μl; MnCl2; 3 independent experiments
Text: To further investigate the interaction between pCD4^165-178 and ⍺4β7 we attached a fluorescein dye to its amino terminus via a trioxatridecan-succinamic acid (Ttds) linker (Fig 5A). A scrambled pCD4^165-178 was employed as a control. […] FIB504 and vedolizumab inhibited binding by ~50%. This inhibition pattern resembles the one we obtained when inhibiting D1D2-Ig⍺tp with the same antagonists (Fig 3). We conclude that the CD4 D2 G β-strand binds directly to the headpiece region of ⍺4β7 in a cation dependent manner. Support for this conclusion, in the form of site directed mutagenesis within the D2 G β-strand is provided below.
Fig 5 Direct binding of pCD4^165-178 to ⍺4β7 on primary T cells. (A) Sequence of FAM -conjugated pCD4^165-178 and a scrambled derivative (FAM-scr pCD4^165-178). (B) Flow-cytometry derived histogram of pCD4^165-178 binding to RA -cultured CD8^+ T cells. pCD4^165-178 in the presence (green), or absence of Mn^++(black). Unstained cells are shown (grey). (C) Binding of pCD4^165-178 and its scrambled derivative to CD8^+ T cells in the presence of MnCl2 as in panel B, and in the presence of ⍺4 and ⍺4β7 antagonists, as indicated. Y-axis indicates % cells bound. Error bars represent standard error from 3 independent experiments.
Cells were stained with fluoresceine conjugated mAbs or recombinant proteins using standard procedures preceded by Fc receptor blocking with human IgG. Buffers used were 10 mM HEPES 150 mM NaCl (HBS Buffer) with 100 μM CaCl2. 1 mM MnCl2 was also included, unless otherwise specified. Buffer without divalent cations included 0.1 mM EDTA. Unlabeled mAb or protein inhibitors were preincubated with cells or proteins at a 5X molar excess for 15 min on ice. FAM labeled peptides were used at 1.25 μg/ 200,000 cells in a 100 μl volume. Data were acquired using a FACSCanto II (BD Biosciences) and analyzed with FlowJo software (BD Biosciences). Plotted MFI values represent absolute values.

[6] = tested on: ⍺4β7; assay: SPR: inhibition by linear peptides of soluble ⍺4β7 binding to a CD4 D1D2 coated surface; settings: for inhibition of ⍺4β7 binding to D1D2 (in words): SPR, Fig 7B, 7D, S5 Fig; for inhibition of ⍺4β7 binding to CD4 D1D2 coated surface: SPR peptide scan (Fig 4A), ⍺4β7 pre-incubated with peptide 2 hours at room temperature, 1 mM MnCl2
Text: We next modified our SPR -based assay in order to map the site(s) on CD4 that interacts with ⍺4β7. In this modified assay ⍺4β7 was passed over a surface coated with CD4 D1D2 in the absence or presence of 42 overlapping 15 amino acid linear peptides spanning CD4 residues 1–178 (S2 Table). Two peptides located in CD4 D1, #7 and #9, inhibited ⍺4β7 binding by ~17% (Fig 4A). The final peptide in CD4 D2, p42, inhibited binding by ~ 66%. Linear peptides often lack the true conformation of the protein from which they are derived. Additionally, the kinetic format of our assay allows for ligand-analyte rebinding during the association phase. These features render this inhibition assay somewhat insensitive. Nevertheless, the dynamic range of this assay is sufficient to identify interactions that are worthy of follow-up investigation (S4 Fig). As such, our preliminary findings raised the possibility that both D1 and D2 domains of CD4 interact with ⍺4β7. Of note, MAdCAM-1 and VCAM-1, like CD4, present two tandemly arrayed N-terminal IgSF domains (Fig 4B). In both cases, binding to ⍺4β7 is mediated by a 1° binding site in their D1s and an accessory site, located in their D2s. The term accessory is a misnomer insofar as these sites plays an essential role in ⍺4β7 binding. Follow-up experiments focused on p9 and p42, which we herein refer to as pCD4^33-47 and pCD4^165-178. pCD4^33-47 partially overlaps the D1 C’C” β-strands and a connecting loop. The primary gp120 contact site (Phe^43) lies at the N-terminal edge of this loop (Fig 4C). pCD4^165-178 includes Q^165 and K^166. These residues lie primarily within the G β-strand of D2, close to the boundary with D3. Because peptide inhibition assays sometime mediate nonspecific effects, further analysis was performed to better establish the role of these two regions of CD4 in binding to ⍺4β7.
To determine if this is the case, we employed an SPR -based assay. Biosensor surfaces were coated with either CD4 D1D2 or a 42 aa cyclic V2 peptide derived from the subtype E 92TH023 gp120 (cV2 92TH023). A third surface coated with MAdCAM-Ig was employed as a positive control. Soluble ⍺4β7 was passed over these surfaces. We then evaluated the capacity of staggered 15 aa peptides that span either CD4 D2 or gp120 V2 to inhibit this interaction (Fig 7A).
Experiments were performed using a Biacore 3000 instrument (Cytiva Life Sciences) using CM4 or CM5 sensor chips. The data were evaluated using BIAevaluation 4.1.1 software (Cytiva Life Sciences). The chip surface was activated by injecting 35 μl of a 1:1 mixture of 0.05 M N-hydroxysuccinimide and 0.2 M N-ethyl-N-(dimethylaminopropyl) carbodiimide at 5 μl/min. NeutrAvidin, HIV gp120, sCD4 (D1D2) or Hu-MAdCAM-Ig (R&D Systems) at concentrations of 5 μg/ml in 10mM NaOAc, pH 4.5, were immobilized to 250–750 resonance units (RU). After the proteins were immobilized to the desired densities, unreacted sites were blocked with 35 μl of 1 M Tris-HCl (pH 8.0). Biotinylated cyclic V2 peptides (1 μg/ml in 20 mM Tris-HCl, pH 8.0) were bound to the NeutrAvidin surfaces to densities of approximately 250–300 RU. One surface was activated and blocked without ligand as a control surface for non-specific binding. Signal from the control surface was subsequently subtracted. Running buffer was HBS (pH 7.4), 1 mM MnCl2, 0.005% Tween- 20, 0.05% soluble carboxymethyl-dextran. Binding experiments were carried out at a flow rate of 25 μl/min at 25°C. After a 2 min injection, the surface was washed for an additional 2 min in running buffer allowing dissociation of the bound ligand from the surface. The surfaces were regenerated by multiple injections of 4.5 M MgCl2 at a flow rate of 100 μl/min. Inhibition of ⍺4β7 binding by linear V2-loop and CD4 derived peptides was carried out by pre-incubating ⍺4β7 with the peptides in running buffer at the indicated concentrations for 2 hours at room temperature prior to passing them over the prepared surfaces as described above. […]

[7] = target: T1, soluble α4β7 (recombinant integrin α4β7) (UniProt P13612 35-977; P26010 20-723); assay: SPR; settings: both partners purified
T1 construct: also called integrin ⍺4β7; recombinant ⍺4β7

## soluble α4β7 (recombinant integrin α4β7) (from UniProt P13612 35-977; P26010 20-723) (complex)
[1]
  Ka: 1.01e+09 M⁻¹
  Kd: 0.994 nM
  koff: 0.00136 s⁻¹
  kon: 1.37e+06 M⁻¹ s⁻¹
[2]
  Ka: 7.47e+08 M⁻¹
  Kd: 1.34 nM
  koff: 0.00112 s⁻¹
  kon: 840000 M⁻¹ s⁻¹
[3]
  Ka: 2.8e+08 M⁻¹
  koff: 0.000464 s⁻¹
  kon: 130000 M⁻¹ s⁻¹

## CCOCc1cc(OC)c(-c2ccc(C[C@H](NC(=O)c3c(F)cccc3F)C(=O)O)cc2)c(OC)c1 [FG, firategrast]
[4]
  inhibition of D1D2-Ig⍺tp and MAdCAM-Ig binding to ⍺4β7 transfected 293T cells (in words): inhibited
[5]
  reduction of pCD4^165-178 binding to CD8^+ T cells: ~ 80%

## KIDIVVLAFQKASS [CD4 P44, overlapping linear CD4 D2 peptide]
[6]
  inhibition of ⍺4β7 binding to D1D2 (in words): unable to inhibit

## QFHWKNSNQIKILGN [CD4 P7, overlapping linear CD4 peptide, CD4 D1]
[6]
  inhibition of ⍺4β7 binding to CD4 D1D2 coated surface: ~ 17%

## VEFKIDIVVLAFQK [CD4 P43, overlapping linear CD4 D2 peptide]
[6]
  inhibition of ⍺4β7 binding to D1D2 (in words): reduced inhibition relative to pCD4^165-178

## QIKILGNQGSFLTKG [CD4 P9, linear CD4 D1 peptide overlapping the C'C'' β-strands and connecting loop]
[6]
  inhibition of ⍺4β7 binding to CD4 D1D2 coated surface: ~ 17%

## IVVLAFQKASSIVY [CD4 P45, overlapping linear CD4 D2 peptide]
[6]
  inhibition of ⍺4β7 binding to D1D2 (in words): unable to inhibit

B1: MAdCAM-Ig (Fc fusion, human, UniProt Q13477 19-317, looked up)
chain: QSLQVKPLQVEPPEPVVAVALGASRQLTCRLACADRGASVQWRGLDTSLGAVQSDTGRSVLTVRNASLSAAGTRVCVGSCGGRTFQHTVQLLVYAFPDQLTVSPAALVPGDPEVACTAHKVTPVDPNALSFSLLVGGQELEGAQALGPEVQEEEEEPQGDEDVLFRVTERWRLPPLGTPVPPALYCQATMRLPGLELSHRQAIPVLHSPTSPEPPDTTSPESPDTTSPESPDTTSQEPPDTTSPEPPDKTSPEPAPQQGSTHTPRSPGSTRTRRPEISQAGPTQGEVIPTGSSKPAGDQ
notes: also called Hu-MAdCAM-Ig; recombinant MAdCAM-Ig
[7]
  Ka: 1.12e+08 M⁻¹
  Kd: 8.92 nM
  koff: 0.000863 s⁻¹
  kon: 96700 M⁻¹ s⁻¹

B2: VCAM-Ig (Fc fusion, UniProt P19320 25-698, looked up)
chain: FKIETTPESRYLAQIGDSVSLTCSTTGCESPFFSWRTQIDSPLNGKVTNEGTTSTLTMNPVSFGNEHSYLCTATCESRKLEKGIQVEIYSFPKDPEIHLSGPLEAGKPITVKCSVADVYPFDRLEIDLLKGDHLMKSQEFLEDADRKSLETKSLEVTFTPVIEDIGKVLVCRAKLHIDEMDSVPTVRQAVKELQVYISPKNTVISVNPSTKLQEGGSVTMTCSSEGLPAPEIFWSKKLDNGNLQHLSGNATLTLIAMRMEDSGIYVCEGVNLIGKNRKEVELIVQEKPFTVEISPGPRIAAQIGDSVMLTCSVMGCESPSFSWRTQIDSPLSGKVRSEGTNSTLTLSPVSFENEHSYLCTVTCGHKKLEKGIQVELYSFPRDPEIEMSGGLVNGSSVTVSCKVPSVYPLDRLEIELLKGETILENIEFLEDTDMKSLENKSLEMTFIPTIEDTGKALVCQAKLHIDDMEFEPKQRQSTQTLYVNVAPRDTTVLVSPSSILEEGSSVNMTCLSQGFPAPKILWSRQLPNGELQPLSENATLTLISTKMEDSGVYLCEGINQAGRSRKEVELIIQVTPKDIKLTAFPSESVKEGDTVIISCTCGNVPETWIILKKKAETGDTVLKSIDGAYTIRKAQLKDAGVYECESKNKVGSQLRSLTLDVQGRENNKDYFSPE
notes: also called recombinant VCAM-Ig
[7]
  Ka: 2.76e+07 M⁻¹
  Kd: 36.3 nM
  koff: 0.00141 s⁻¹
  kon: 38700 M⁻¹ s⁻¹
